# Assay results reported in article PMC9633730, “Endowing homodimeric carbamoyltransferase GdmN with iterative functions through structural characterization and mechanistic studies” (Nature Communications, 2022).
# What was measured:
# [1] = target: GdmN (Streptomyces hygroscopicus XM201); assay: SEC; Superdex 200 Increase 10/300 GL, buffer C (10 mM Tris, 150 mM NaCl, pH 8.0), calibrated with Bio-Rad gel filtration standards; monomer to dimer
# GdmN = target: T1, GdmN (Streptomyces hygroscopicus, UniProt Q84G19, V24Y/G157A/R158A/G188R); assay: X-ray co-crystal structure; assay type: binding; details: reaction intermediate formed from ATP, MgCl2 and carbamoyl phosphate; carbamoyl group rotated
# T1 construct: homodimer; Kae1-like M1-L351, YrdC-like G368-A571, dimerization domain D574-L674; one iron ion per monomer
# T1 sequence (Q84G19 entry or part of it V24Y/G157A/R158A/G188R): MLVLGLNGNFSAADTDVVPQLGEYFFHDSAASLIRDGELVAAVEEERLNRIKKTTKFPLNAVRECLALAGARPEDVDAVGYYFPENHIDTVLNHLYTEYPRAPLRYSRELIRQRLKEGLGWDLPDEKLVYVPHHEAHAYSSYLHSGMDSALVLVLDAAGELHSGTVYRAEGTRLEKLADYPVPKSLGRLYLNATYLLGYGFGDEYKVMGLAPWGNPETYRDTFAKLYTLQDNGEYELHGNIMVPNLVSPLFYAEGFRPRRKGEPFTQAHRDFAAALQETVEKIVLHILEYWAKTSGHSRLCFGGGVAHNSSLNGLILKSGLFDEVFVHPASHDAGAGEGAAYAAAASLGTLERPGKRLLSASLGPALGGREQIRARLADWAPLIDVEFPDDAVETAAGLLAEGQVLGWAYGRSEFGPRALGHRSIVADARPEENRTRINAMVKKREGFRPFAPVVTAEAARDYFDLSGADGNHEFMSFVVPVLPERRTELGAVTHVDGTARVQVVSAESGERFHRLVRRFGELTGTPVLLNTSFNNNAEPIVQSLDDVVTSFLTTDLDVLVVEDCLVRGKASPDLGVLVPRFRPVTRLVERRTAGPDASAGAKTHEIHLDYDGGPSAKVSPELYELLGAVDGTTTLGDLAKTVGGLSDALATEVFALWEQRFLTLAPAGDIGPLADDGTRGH
Compound,stoichiometry N [1],X-ray co-crystal structure (GdmN)
GdmN (enzyme),2,
NC(=O)OP(=O)(O)OC[C@H]1O[C@@H](n2cnc3c(N)ncnc32)[C@H](O)[C@@H]1O [carbamoyl-AMP],,complex of GdmN V24Y/G157A/R158A/G188R mutant with carbamoyl-AMP (PDB: 7VZQ)
